Data reported in US20250332297A1, “DLL3-SPECIFIC BINDING CONSTRUCTS AND THEIR USE IN RADIOTHERAPY” (MOLECULAR PARTNERS AG, priority 2024, published 2025).
Where a chain is given by its changes, count along the chain named.

B1: Non-binding DARPin control comprising SEQ ID NO: 22 (designed binder)
chain: DLGKKLLEAARAGQDDEVRELLKAGADVNAKDKDGYTPLHLAAREGHLEIVEVLLKAGADVNAKDKDGYTPLHLAAREGHLEIVEVLLKAGADVNAQDKSGKTPADLAADAGHEDIAEVLQKAAGSPTPTPTTPTPTPTTPTPTPTGSDLGKKLLEAARAGQDDEVRELLKAGADVNAKDKDGYTPLHLAAREGHLEIVEVLLKAGADVNAKDKDGYTPLHLAAREGHLEIVEVLLKAGADVNAQDKSGKTPADLAADAGHEDIAEVLQKAA
notes: Negative control on NCI-H82 cells; also called control DARPin
B2: High HSA affinity 2D DARPin: MAM160 with a GS at the N-terminus and a Cysteine-containing tag at the C-terminus (protein)
chain: GSDLGKKLLEAARAGQDDEVRELLKAGADVNAKDYFSHTPLHLAARNGHLKIVEVLLKAGADVNAKDFAGKTPLHLAADAGHLEIVEVLLKAGADVNAQDIFGKTPADIAADAGHEDIAEVLQKAAGSPTPTPTTPTPTPTTPTPTPTGSDLGTKLLSAAADGQDDEVRELLQAGADVNAKDLFGYTPLHLAAWRGHLEIVEVLLEAGADVNAKDAAGLTPLHLAAWFGHLEIVEVLLEAGADVNAQDVQGVTPADLAAKEGHEDIAEVLQQAAGSGSC
modifications: Ankyrin repeat protein with tag (GS-MAM160-tag)
B3: MAM282 (two domain ankyrin repeat protein, N-terminal His6-TEV tag) (designed binder)
chain: MRGSHHHHHHENLYFQDLGKKLLEAARAGQDDEVRELLKAGADVNAKDYFSHTPLHLAARNGHLKIVEVLLKAGADVNAKDFAGKTPLHLAADAGHLEIVEVLLKAGADVNAQDIFGKTPADIAADAGHEDIAEVLQKAAGSPTPTPTTPTPTPTTPTPTPTGSDLGKKLLAAAREGQDDEVRELLKAGADVNAKDIWGQTPLHIAAWFGHLEIVEVLLKAGADVNAKDQTGHTPLHLAAKFGHLEIVEVLLKAGADVNAQDLLGRTPADLAAEEGHEDIAEVLQKAA
notes: also called 2D DARPin
B4: MAM283 (two domain ankyrin repeat protein, N-terminal His6-TEV tag) (designed binder)
chain: MRGSHHHHHHENLYFQDLGKKLLEAARAGQDDEVRELLKAGADVNAKDYFSHTPLHLAARNGHLKIVEVLLKAGADVNAKDFAGKTPLHLAADAGHLEIVEVLLKAGADVNAQDIFGKTPADIAADAGHEDIAEVLQKAAGSPTPTPTTPTPTPTTPTPTPTGSDLGKKLLAAAADGQDDEVRELLQAGADVNAKDLFGYTPLHLAAWRGHLEIVEVLLEAGADVNAKDAAGETPLHLAAWFGHLEIVEVLLEAGADVNAQDVQGKTPADLAAKEGHEDIAEVLQQAA
notes: also called 2D DARPin
B5: MAM279 (two domain ankyrin repeat protein, N-terminal His6-TEV tag) (designed binder)
chain: B4 chain with D176Q, Q187K, D191N, E220K, E253K, V263L, Q286K
notes: Cleavage of the tag is not reported; also called 2D DARPin

Experiments:
[1] = target: Human DLL3 expressed on cells (HEK293T-hDLL3, NCI-H82, SHP-77, MC38-hDLL3) (human) (UniProt Q9NYJ7); test: flow cytometry titration on HEK293T-hDLL3 cells, without HSA
[2] = target: Human DLL3 expressed on cells (HEK293T-hDLL3, NCI-H82, SHP-77, MC38-hDLL3) (human) (UniProt Q9NYJ7); test: flow cytometry titration on HEK293T-hDLL3 cells, with HSA
[3] = target: T1, Human DLL3 expressed on cells (HEK293T-hDLL3, NCI-H82, SHP-77, MC38-hDLL3) (human, UniProt Q9NYJ7 27-618); test: flow cytometry titration on NCI-H82 cells, with HSA
T1 construct: also called DLL3 endogenously expressed on human cells
T1 sequence: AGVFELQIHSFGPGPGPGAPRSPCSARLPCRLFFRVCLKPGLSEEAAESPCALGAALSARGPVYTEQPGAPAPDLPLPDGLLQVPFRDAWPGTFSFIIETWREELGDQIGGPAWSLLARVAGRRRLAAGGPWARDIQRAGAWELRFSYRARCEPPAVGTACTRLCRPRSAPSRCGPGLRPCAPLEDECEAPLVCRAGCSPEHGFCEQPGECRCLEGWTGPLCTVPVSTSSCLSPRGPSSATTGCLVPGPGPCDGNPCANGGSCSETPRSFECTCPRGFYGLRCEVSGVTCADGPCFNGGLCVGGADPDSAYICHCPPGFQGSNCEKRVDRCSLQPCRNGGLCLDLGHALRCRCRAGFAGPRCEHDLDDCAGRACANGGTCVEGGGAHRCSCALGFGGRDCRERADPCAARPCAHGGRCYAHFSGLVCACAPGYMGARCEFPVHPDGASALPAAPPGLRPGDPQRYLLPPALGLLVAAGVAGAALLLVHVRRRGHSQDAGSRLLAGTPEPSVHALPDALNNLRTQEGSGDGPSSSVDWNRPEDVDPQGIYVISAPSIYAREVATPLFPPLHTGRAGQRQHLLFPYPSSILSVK

mouse serum albumin [4] = target: T2, mouse serum albumin (Mus musculus, UniProt P07724); test: SPR binding of 2D DARPins with different HSA binders to mouse serum albumin (Example 3); settings: immobilized MSA, Cysteine capped with IAM, 1:1 Langmuir, Table 12
T2 construct: purchased Sigma-Aldrich
T2 sequence (P07724 25-608): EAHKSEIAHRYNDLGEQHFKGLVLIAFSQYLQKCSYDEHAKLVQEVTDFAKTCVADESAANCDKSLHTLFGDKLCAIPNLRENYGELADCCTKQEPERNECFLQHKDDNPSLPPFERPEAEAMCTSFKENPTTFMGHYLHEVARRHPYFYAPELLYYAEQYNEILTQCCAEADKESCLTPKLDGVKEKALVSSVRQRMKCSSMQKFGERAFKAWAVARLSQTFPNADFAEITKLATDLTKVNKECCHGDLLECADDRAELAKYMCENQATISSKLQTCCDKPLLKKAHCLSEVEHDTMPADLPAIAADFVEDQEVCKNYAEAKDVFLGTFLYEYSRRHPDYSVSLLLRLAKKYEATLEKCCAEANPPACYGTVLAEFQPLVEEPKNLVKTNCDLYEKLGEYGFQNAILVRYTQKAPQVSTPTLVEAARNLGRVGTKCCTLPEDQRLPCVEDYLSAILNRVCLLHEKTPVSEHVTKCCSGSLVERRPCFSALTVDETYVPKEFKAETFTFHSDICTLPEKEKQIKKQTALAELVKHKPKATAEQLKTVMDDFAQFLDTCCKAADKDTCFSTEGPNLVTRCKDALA

human serum albumin [5] = target: human serum albumin (Homo sapiens, UniProt P02768)
[6] = target: T1, Human DLL3 expressed on cells …; test: flow cytometry titration on NCI-H82 cells (endogenous DLL3), with 10 uM HSA
Experimental: (§1) Furthermore, cell binding titration assays were also performed with selected two domain (2D) designed ankyrin repeat proteins to determine binding to human cells expressing DLL3 endogenously, in absence and presence of human serum albumin. For this purpose, NCI-H82 cells were used, a human lung carcinoma cell line which endogenously expresses DLL3 on the surface. […] A non-binding DARPin comprising SEQ ID NO: 22 was used as a negative control.
(§2) In brief, 1×10⁵ cells/well were resuspended in 100 μl DARPin dilution (500 nM, 1:5 serial diluted in PBS, 2% FBS) and incubated for 1 h at 4° C. This step was performed in absence and presence of 10 μM Human Serum Albumine (CSL Behring #150570). Cells were washed twice with PBS, 2% FBS and resuspended in 100 μl anti-DARPin antibody (rabbit anti-DARPin 1.4.8) and LIVE/DEAD cell stain (1:1000, Biolegend #423106). After incubation and washing, cells were incubated with detection antibody for 30 minutes (Goat […] IgG (H+L), AF647, Thermo Fisher #21445). Cells were fixed (Paraformaldehyde Solution, TCL119, LucernaChem) and acquired at Attune N×T (Thermo Life Technologies). Raw fcs files were exported and analyzed using FlowJo software. MFI values of live AF647-positive cells were exported from FlowJo and plotted using GraphPad Prism software.

[7] = target: T1, Human DLL3 expressed on cells …; test: flow cytometry titration on HEK293T-hDLL3 cells, with HSA
Experimental: (§3) Cell binding titration assays were performed for selected His-tagged single domain (1 D) and two domain (2D) designed ankyrin repeat proteins to determine binding to human DLL3 expressed on HEK293T-huDLL3 cells in absence and presence of human serum albumin. […] HEK293T-hDLL3 cells are HEK293T cells that were stably transfected to express human DLL3 on their surface.
as §2, with “diluted)” for “diluted in PBS, 2% FBS)”, “C.” for “C. This step was performed in absence and presence of 10 μM Human Serum Albumine (CSL Behring #150570).”, “PBS” for “PBS, 2% FBS”, “LIVE/DEAD fixable” for “LIVE/DEAD”, “Thermo Fisher #L34957). This step was performed in absence and presence of […] Human Serum Albumin (CSL Behring #150570).” for “Biolegend #423106).”, “Solution,” for “Solution, TCL119,”

human serum albumin [8] = target: T3, human serum albumin (human, UniProt P02768 25-609); test: SPR (Bruker Sierra SPR-32), HSA on chip, DARPin as analyte, 1:1 Langmuir fit
T3 construct: also called HSA
Experimental: (§4) Similarly, a SPR assay was used to determine the binding kinetics to human or mouse serum albumin. […] All analytes (3-fold dilution ranging from 1000-12.35 nM) were injected in succession for 240 s (25 μl/min) and dissociation was recorded for 600 s (25 μl/min).

mouse serum albumin [9] = target: T4, mouse serum albumin (mouse, UniProt P07724 25-608); test: SPR (Bruker Sierra SPR-32), MSA on chip, DARPin as analyte, 1:1 Langmuir fit
T4 construct: also called MSA
T4 sequence (P07724 25-608 limits assumed): as the sequence (P07724 25-608) above
Experimental: as §4

[10] = target: T1, Human DLL3 expressed on cells …; test: flow cytometry titration on HEK293T-hDLL3 cells, without HSA
Experimental: as §3
as §2, with “diluted)” for “diluted in PBS, 2% FBS)”, “C.” for “C. This step was performed in absence and presence of 10 μM Human Serum Albumine (CSL Behring #150570).”, “PBS” for “PBS, 2% FBS”, “LIVE/DEAD fixable” for “LIVE/DEAD”, “Thermo Fisher #L34957). This step was performed in absence and presence of […] Human Serum Albumin (CSL Behring #150570).” for “Biolegend #423106).”, “Solution,” for “Solution, TCL119,”

[11] = target: T1, Human DLL3 expressed on cells …; test: flow cytometry titration on NCI-H82 cells (endogenous DLL3), without HSA
Experimental: as §1, §2

[12] = target: T5, hDLL3 ECD-Avi-Fckih (biotinylated extracellular domain of human DLL3, residues 27 to 466, Avi-tag, 3C site, … (human, UniProt Q9NYJ7 27-466, biotinylated at the Avi-tag)); test: SPR (ProteOn), biotinylated hDLL3 ECD-Avi-Fckih on chip, DARPin as analyte, 1:1 Langmuir fit
T5 construct: The make-up of the second Fc chain of the knob-into-hole pair is not described; also called bio-DLL3; recombinant human DLL3; not shown: Avi-tag, 3C protease recognition site and Fc knob into hole
T5 sequence: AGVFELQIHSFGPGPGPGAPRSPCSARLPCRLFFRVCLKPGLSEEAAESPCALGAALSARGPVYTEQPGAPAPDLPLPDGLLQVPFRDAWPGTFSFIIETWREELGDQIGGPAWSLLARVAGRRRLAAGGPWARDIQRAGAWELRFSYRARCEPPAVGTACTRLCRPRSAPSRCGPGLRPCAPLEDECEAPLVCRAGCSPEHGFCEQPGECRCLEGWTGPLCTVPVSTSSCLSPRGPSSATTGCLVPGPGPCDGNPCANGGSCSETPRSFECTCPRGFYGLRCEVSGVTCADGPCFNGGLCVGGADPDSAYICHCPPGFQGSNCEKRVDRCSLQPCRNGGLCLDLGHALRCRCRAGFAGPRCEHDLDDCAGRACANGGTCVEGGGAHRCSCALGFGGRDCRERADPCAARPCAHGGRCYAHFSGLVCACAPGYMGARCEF
Experimental: Kinetic binding parameters and binding affinities of two domain (2D) ankyrin repeat proteins comprising an ankyrin repeat domain with binding specificity for DLL3 and an ankyrin repeat domain with binding specificity for serum albumin were determined by surface plasmon resonance (SPR) multi-trace analysis.
In brief, a SPR assay was used to determine the binding kinetics to the target human DLL3. The data were generated using BioRad ProteOn instrument in SPR running buffer (PBS, pH 7.4 containing 0.005% Tween 20®). […] The chip was coated with biotinylated target (bio-DLL3) to reach a signal intensity of 1780 RU. […] Each injection was followed by a regeneration step with 16 mM H₃PO₄ for 18 s. […] The bio-DLL3 target used was as described in U.S. 63/550,951, i.e. the extracellular domain (ECD) of human DLL3 protein (Q9NYJ7, Gene ID: 10683, residues 27 to 466; purchased from Evitria) linked via an Avi-tag (for site-directed biotinylation), followed by a 3C protease recognition site, to a Fc knob into hole (hDLL3 ECD-Avi-Fcₖᵢₕ).

Molecule | EC50 [6] [nM] | EC50 [7] [nM] | Kd (human serum albumin [8]) [nM] | koff (human serum albumin [8]) [s⁻¹] | kon (human serum albumin [8]) [M⁻¹ s⁻¹] | Kd (mouse serum albumin [9]) [nM] | koff (mouse serum albumin [9]) [s⁻¹] | kon (mouse serum albumin [9]) [M⁻¹ s⁻¹] | EC50 [10] [nM] | EC50 [11] [nM] | Kd [12] [nM] | koff [12] [s⁻¹] | kon [12] [M⁻¹ s⁻¹] | also measured
Rova antibody |  |  |  |  |  |  |  |  |  |  |  |  |  | EC50 [1]: 0.1 nM; EC50 [2]: 0.3 nM
B1 |  |  |  |  |  |  |  |  |  |  |  |  |  | binding result [3]: no binding (tested: 500 nM)
B2 |  |  |  |  |  |  |  |  |  |  |  |  |  | Koff MSA (mouse serum albumin [4]): 0.0345 s⁻¹; Kon MSA (mouse serum albumin [4]): 133000 M⁻¹ s⁻¹; Koff HSA (human serum albumin [5]): 0.0311 s⁻¹; Kon HSA (human serum albumin [5]): 105000 M⁻¹ s⁻¹; fold higher binding affinity to HSA than the Low HSA affinity 2D DARPin (human serum albumin [5]; SPR KD comparison): about 10 fold
B3 | 2.6 | 19.6 | 74.3 | 0.00889 | 120000 | 335 | 0.0354 | 106000 | 21.2 | 2.6 | 3.03 | 3.79e-05 | 12500 | 
B4 | 8.1 | 18.4 | 103 | 0.00924 | 89500 | 507 | 0.0378 | 74700 | 22.1 | 5.4 | 0.953 | 1.79e-05 | 18800 | 
B5 | 2.1 | 16.3 | 75 | 0.00923 | 123000 | 367 | 0.0335 | 91200 | 14.9 | 2.5 | 0.616 | 1.44e-05 | 23300 | 
